Assay results published in patent US20250076311A1 (Chugai, published 2025).
Numbering of substitutions follows the chain as printed. Names may count otherwise. Blank lines part the entries; values can stand above or below the binder they belong to.

Experiments:
[1] = target: T1, human FcγRIIIaV extracellular domain, His-tagged (human, UniProt P08637 17-208); experiment: SPR (Biacore), 25C, KD of SG1 / KD of variant
T1 construct: also called human FcgRIIIaV
T1 sequence (P08637 17-208 F176V): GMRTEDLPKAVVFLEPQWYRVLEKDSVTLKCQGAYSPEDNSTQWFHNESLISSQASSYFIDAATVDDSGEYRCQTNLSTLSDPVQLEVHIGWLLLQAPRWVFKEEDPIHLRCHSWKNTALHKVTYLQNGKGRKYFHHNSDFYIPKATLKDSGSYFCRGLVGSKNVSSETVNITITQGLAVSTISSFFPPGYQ

[2] = target: T2, human FcγRIIaR extracellular domain, His-tagged (human, UniProt P12318 34-217); experiment: SPR (Biacore), 25C, KD of SG1 / KD of variant
T2 construct: also called human FcgRIIaR; FcγRIIa type R
T2 chain: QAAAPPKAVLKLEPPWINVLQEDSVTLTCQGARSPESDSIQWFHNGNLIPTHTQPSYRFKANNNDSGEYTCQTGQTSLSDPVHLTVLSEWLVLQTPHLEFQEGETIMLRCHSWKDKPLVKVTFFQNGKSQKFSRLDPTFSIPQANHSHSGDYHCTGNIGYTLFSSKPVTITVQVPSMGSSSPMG

[3] = target: T3, cynomolgus monkey FcγRIIa3 extracellular domain, His-tagged (cynomolgus monkey); experiment: SPR (Biacore), 25C, KD of SG1 / KD of variant
T3 construct: also called cyno FcgRIIa3
T3 chain: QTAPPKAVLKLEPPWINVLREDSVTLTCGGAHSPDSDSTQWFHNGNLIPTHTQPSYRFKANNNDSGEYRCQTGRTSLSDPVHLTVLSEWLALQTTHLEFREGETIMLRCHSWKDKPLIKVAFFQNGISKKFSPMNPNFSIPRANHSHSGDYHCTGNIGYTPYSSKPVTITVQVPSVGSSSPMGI

[4] = target: T4, cynomolgus monkey FcγRIIa2 extracellular domain, His-tagged (cynomolgus monkey); experiment: SPR (Biacore), 25C, KD of SG1 / KD of variant
T4 construct: also called cyno FcgRIIa2
T4 chain: T3 chain with I127K, K130N, P133H, R142Q

[5] = target: T5, human FcγRIIb extracellular domain, His-tagged (human, UniProt P31994 43-217); experiment: SPR (Biacore), 25C, KD of SG1 / KD of variant
T5 construct: also called human FcgRIIb
T5 sequence: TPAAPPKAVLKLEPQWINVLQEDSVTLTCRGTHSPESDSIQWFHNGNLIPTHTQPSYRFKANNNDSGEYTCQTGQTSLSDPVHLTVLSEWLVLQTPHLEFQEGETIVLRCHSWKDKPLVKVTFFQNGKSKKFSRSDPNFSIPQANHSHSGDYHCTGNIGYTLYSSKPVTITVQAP

[6] = target: T6, cynomolgus monkey FcγRIIb extracellular domain, His-tagged (cynomolgus monkey); experiment: SPR (Biacore), 25C, KD of SG1 / KD of variant
T6 construct: also called cyno FcgRIIb
T6 chain: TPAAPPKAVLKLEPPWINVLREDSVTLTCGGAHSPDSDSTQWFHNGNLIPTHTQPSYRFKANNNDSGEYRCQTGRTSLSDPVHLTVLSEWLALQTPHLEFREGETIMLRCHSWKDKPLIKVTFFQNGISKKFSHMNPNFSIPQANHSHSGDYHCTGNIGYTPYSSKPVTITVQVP

[7] = target: T7, cynomolgus monkey FcγRIIIaS extracellular domain, His-tagged (cynomolgus monkey, UniProt Q8SPW2 21-206 at identity 1.00)); experiment: SPR (Biacore), 25C, KD of SG1 / KD of variant
T7 construct: also called cyno FcgRIIIaS
T7 chain: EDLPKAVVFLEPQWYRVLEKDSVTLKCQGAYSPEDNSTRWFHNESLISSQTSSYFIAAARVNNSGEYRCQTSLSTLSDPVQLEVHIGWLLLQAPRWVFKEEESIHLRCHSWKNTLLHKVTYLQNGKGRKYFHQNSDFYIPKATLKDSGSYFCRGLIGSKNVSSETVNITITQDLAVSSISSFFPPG

[8] = target: T8, cynomolgus monkey FcγRIIa1 extracellular domain, His-tagged (cynomolgus monkey); experiment: SPR (Biacore), 25C, KD of SG1 / KD of variant
T8 construct: also called cyno FcgRIIa1
T8 chain: T3 chain with T95P, A121T, S128A, P133H, N135D

[9] = target: T9, human FcγRIIaH extracellular domain, His-tagged (human, UniProt P12318 34-217); experiment: SPR (Biacore), 25C, KD of SG1 / KD of variant
T9 construct: also called human FcgRIIaH; FcγRIIa type H
T9 sequence: T2 chain with R134H

[10] = target: T1, human FcγRIIIaV extracellular domain, …; experiment: SPR (Biacore), 25C, antibody captured, FcgR as analyte
Method: (§1) The kinetic analysis of interactions between these antibodies and FcγR was carried out using BIACORE® T200 or BIACORE® 4000 (GE Healthcare). HBS-EP+ (GE Healthcare) was used as the running buffer, and the measurement temperature was set to 25° C. […] After the measurement, the antibody captured on the chip was washed off by allowing reaction with 10 mM glycine-HCl, pH1.5 and 25 mM NaOH so that the chip was regenerated and used repeatedly. The sensorgrams obtained as measurement results were analyzed by the 1:1 Langmuir binding model using the BIACORE® Evaluation Software to calculate the binding rate constant ka (L/mol/s) and dissociation rate constant kd (1/s), and the dissociation constant KD (mol/L) was calculated from these values. […] Regarding such interactions, KD values were calculated using the following 1:1 binding model described in BIACORE® T100 Software Handbook BR1006-48 Edition AE.

[11] = target: T2, human FcγRIIaR extracellular domain, …; experiment: as above
Method: as §1

[12] = target: T4, cynomolgus monkey FcγRIIa2 …; experiment: as above
Method: as §1

[13] = target: T6, cynomolgus monkey FcγRIIb extracellular …; experiment: as above
Method: as §1

[14] = target: T9, human FcγRIIaH extracellular domain, …; experiment: as above
Method: as §1

Mouse latent myostatin = target: T10, Mouse latent myostatin (mouse, UniProt O08689 26-267; O08689 268-376, limits assumed); experiment: SPR (Biacore T200), 37C, pH 5.8, antibody captured on ProA/G
T10 sequence 1: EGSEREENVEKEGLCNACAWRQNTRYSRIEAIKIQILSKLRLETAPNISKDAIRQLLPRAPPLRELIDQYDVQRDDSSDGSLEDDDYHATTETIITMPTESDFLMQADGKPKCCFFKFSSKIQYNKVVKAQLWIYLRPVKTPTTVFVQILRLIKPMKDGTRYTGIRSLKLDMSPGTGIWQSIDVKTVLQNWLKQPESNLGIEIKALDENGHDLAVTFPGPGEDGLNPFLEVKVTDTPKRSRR
T10 sequence 2: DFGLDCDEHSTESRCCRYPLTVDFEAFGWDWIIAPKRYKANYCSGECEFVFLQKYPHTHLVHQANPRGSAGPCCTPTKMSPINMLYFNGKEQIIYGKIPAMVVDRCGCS
Method: ProA/G (Pierce) was immobilized onto all flow cells of a CM4 chip using an amine coupling kit (GE Healthcare). All antibodies and analytes were prepared in ACES pH7.4 or pH5.8 buffer containing 20 mM ACES, 150 mM NaCl, 1.2 mM CaCl₂, 0.05% TWEEN® 20, 0.005% NaN3. […] The sensor surface was regenerated each cycle with 10 mM Glycine HCl pH1.5. Binding affinity was determined by processing and fitting the data to a 1:1 binding model using BIACORE® T200 Evaluation software, version 2.0 (GE Healthcare).

[15] = target: T11, cynomolgus monkey FcγRIIIaS extracellular domain, His-tagged (cynomolgus monkey, UniProt Q8SPW2 21-206 at identity 1.00)); experiment: SPR (BIACORE), antibody captured, FcγR analyte, 25 C; KD of SG1 divided by KD of variant
T11 construct: also called cyno FcγRIIIaS; cynoFcgRIIIaS
T11 chain: T7 chain

[16] = target: T12, human FcγRIIaR extracellular domain, His-tagged (human, UniProt P12318 34-217); experiment: as above
T12 construct: also called human FcγRIIa (type R); FcgRIIaR
T12 chain: T2 chain

[17] = target: T13, human FcγRIIb extracellular domain, His-tagged (human, UniProt P31994 43-217); experiment: as above
T13 construct: also called human FcgRIIb; FcgRIIb (human)
T13 sequence: T5 sequence

[18] = target: T14, human FcγRIIIaV extracellular domain, His-tagged (human, UniProt P08637 17-208); experiment: as above
T14 construct: also called human FcγRIIIa (V158); FcgRIIIaV
T14 sequence (P08637 17-208 F176V): as the sequence (P08637 17-208 F176V) above

[19] = target: T15, human FcγRIIaH extracellular domain, His-tagged (human, UniProt P12318 34-217); experiment: as above
T15 construct: also called human FcγRIIa (type H); FcgRIIaH
T15 sequence: T2 chain with R134H

B2: MS1032LO21-SG1 (antibody, human IgG1, kappa, V domains shown)
VH: QVTLKESGPVLVKPTETLTLTCKVSGIDLSHDDISWVRQAPGKGLEWVSIISYAGSTYYASWAKGRLTISKDTSKNQVVLTMTNMDPVDTATYYCARGVPAYSHGGDLWGQGTLVTVSS
VL: DIVMTQSPATLSLSPGERATLSCTTSQSVYHENWLSWFQQKPGQPPKLLIYWASTLAYGVPSRFSGSGSGTDFTLTISSLQPEDAATYYCAGGYGGGRYAFGQGTKVEIKR
Kd (Mouse latent myostatin): 29.4 nM

B4: M103205H795-MY450/M103202L889-SK1 (antibody, human IgG1, kappa, name in EU numbering)
heavy: QVTLKESGPVLVKPTETLTLTCTVSGIDLSHDDISWVRQAPGKGLEWVGIISYAGSTYYASWAKGRLTISKDTSKNQVVLTMTNMDPVDTATYYCARGVPAYSHGGDLWGQGTLVTVSSASTKGPSVFPLAPSSKSTSGGTAALGCLVKDYFPEPVTVSWNSGALTSGVHTFPAVLQSSGLYSLSSVVTVPSSSLGTQTYICNVNHKPSNTKVDKKVEPKSCDKTHTCPPCPAMELLTGPSVFLFPPKPKDTLMISRTPEVTCVVVDVSDEDPEVKFNWYVDGVEVHNAKTKPREEQYNSTYRVVSVLTVLHQDWLNGKEYKCKVSNKALPKPIEKTISKAKGQPREPQVYTLPPSREEMTKNQVSLTCLVKGFYPSDIAVEWESNGQPENNYKTTPPVLDSDGSFFLYSKLTVDKSRWQQGNVFSCSVMHEALHNHYTQKSLSLSP
light: DIVMTQSPATLSLSPGERATLSCTSSQSVYHANWLSWFQQKPGQPPKLLIYWASTLAYGVPSRFSGSGSGTDFTLTISSLQPEDAATYYCAGGYGGGRYAFGQGTKVEIKRTVAAPSVFIFPPSDEQLKSGTASVVCLLNNFYPREAKVQWKVDNALQSGNSQESVTEQDSKDSTYSLSSTLTLSKADYEKHKVYACEVTHQGLSSPVTKSFNRGEC
KD fold (SG1 = 1) [17]: 9.8 fold
KD fold (SG1 = 1) [18]: 0.2 fold
KD fold (SG1 = 1) [19]: 5.3 fold

The next lines start with the values.

KD fold (SG1 = 1) [1]: 0.002
KD fold (SG1 = 1) [2]: 0.1
KD fold (SG1 = 1) [3]: 0.5
KD fold (SG1 = 1) [4]: 0.2
KD fold (SG1 = 1) [5]: 3.3
KD fold (SG1 = 1) [6]: 0.4
KD fold (SG1 = 1) [7]: 0.004
KD fold (SG1 = 1) [8]: 0.2
KD fold (SG1 = 1) [9]: 0.01
Kd [10]: 550000 nM
Kd [11]: 2000 nM
Kd [12]: 2000 nM
Kd [13]: 4300 nM
Kd [14]: 3500 nM
B1: MS1032LO06-MY009 (antibody, human IgG1, kappa)
heavy: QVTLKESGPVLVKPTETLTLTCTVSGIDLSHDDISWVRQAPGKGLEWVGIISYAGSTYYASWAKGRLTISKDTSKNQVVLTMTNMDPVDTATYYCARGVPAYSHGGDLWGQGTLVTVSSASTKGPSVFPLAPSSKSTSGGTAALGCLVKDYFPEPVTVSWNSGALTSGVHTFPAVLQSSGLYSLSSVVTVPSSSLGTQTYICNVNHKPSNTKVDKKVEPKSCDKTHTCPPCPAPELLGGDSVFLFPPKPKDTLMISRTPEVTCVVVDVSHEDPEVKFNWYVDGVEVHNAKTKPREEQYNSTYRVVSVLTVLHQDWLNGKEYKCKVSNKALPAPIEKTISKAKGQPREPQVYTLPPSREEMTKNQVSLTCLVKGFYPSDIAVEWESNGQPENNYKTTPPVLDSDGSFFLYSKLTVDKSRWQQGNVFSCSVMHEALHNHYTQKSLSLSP
light: B4 light
notes: SG1 with P238D (EU numbering); also called M103205H795-MY009/M103202L889-SK1

KD fold (SG1 = 1) [15]: 0.2 fold
KD fold (SG1 = 1) [16]: 4.3 fold
B3: M103205H795-MY458/M103202L889-SK1 (antibody, human IgG1, kappa, name in EU numbering)
heavy: B4 heavy with M234Y
light: B4 light
